Experimental data: the DeepSol protein solubility set

assay: soluble on expression in E. coli; label from the status in PepcDB or PDB records

| Sequence | soluble on expression in E. coli |
| --- | --- |
| MSLEVNVEGKLEAMQAVVGAKAVPFAGTQAEPIQIAMIYPSADTSDFWARNYIAMTKRLEELGIQFETTEFASRQIEHSLQSTYANQVVQDADLYDFVIFGPSELAIQADNIDKMAASEGFSTFVWAFHTPLKDLKNQPDGWFDFSSAAGALTMCDYMLGRLGNDVTMAMNRGIPGITDDQRSGDFKACVEEKGNWTTIYEHYGEYQREGGFEGTSLILQAYPEATVIHNANTAMAMGSVEAQISVGKEKEVFSTGWGGTGLELDAIRRGELDATPMRMGDDVGAATAEAIKAHLEGRSDELPFVFLGRITVAHDQMSAEEIDALEAEAFRFSGVGALEREGHHHHHH | not soluble |
| MSLFAAQYIGNKSFNVVEGHAIAPQAGEVRLDVGYVGICGTDMHIYHGVMDQRVSIPQTIGHEISGVVAQIGEGVEGFTVGEKVVVRPLDWCGECPTCEAGLTHICQNLKFMGIDTPGAFQSSWTVKARTLHKLPAGVDLKQGALVEPLSVACHDVRRSRLKAGEKAVILGGGPIGQLVAAVAKSVGAEVLVSEPNDSRREFADELGVKSVNPMDTDLAAYVDQWTGTKGADVVFEVSGVLPAIQSMTQIAGRRGRIVMVAIHSTAPPIDLFQFFWKELELLGARVYEAADFDWAIELIASGQIDLKPFISSVSPLADIGSAFANMDGNPQGMKALVECNAEEGHHHHHH | soluble |
| MSLFHREDFSKALLKKALQPGMRVMDIGCGSGELTRLAADIVGKEGDVVGIDINEQLLWQARHDNGYANVSYQNADLAALSSFETKSFDAIIGRRVLMYQKDPKKVIESLTPLLKPNGFYVFQESDAMCLELAKPSFVNMNKIQSLIWQTVEKEGGHIHIGSQLEQLMLEAGLIVDHFVSENVIQTSQTGTDLSWLLNIMKERIQKYSDLQGLEDVNLQKELEENNDHFIRDCQFGIISHRVDEGHHHHHH | soluble |
| MSLFKEERTMTNYTVDTLNLGKFITESGEVIDNLRLRYEHVGYHGQPLVVVCHALTGNHLTYGTDDYPGWWREIIDGGYIPIHDYQFLTFDVIGSPFGSSSPLNDPHFPKKLTLRDIVRANERGIQALGYDKINILIGGSLGGMQAMELLYNQQFEVDKAIILAATSRTSSYSRAFNEIARQAIHLGGKEGLSIARQLGFLTYRSSKSYDERFTPDEVVAYQQHQGNKFKEHFDLNCYLTLLDVLDSHNIDRGRTDVTHIFKNLETKVLTMGFIDDLLYPDDQVRALGERFKYHRHFFVPDNVGHDGFLLNFSTWAPNLYHFLNLKHFKRKEGHHHHHH | soluble |
| MSLFPNYEFSFRPIARKFVRSLVTSHGIWEVREAIILRLTDTTGKVGWGEIAPISWFGSETLAQALDFCRQLPEEITQEIIFSIPDDLPACQFGFESALEAMGSGEDVTITNAQFSALLPAGEAALHQWQSLWDEGYRTFKWKIAVGEVAQELRIFDSLTQILPASAKLRLDANGGLSYPEAHLWLQACDNLPVEVEFIEQPLPVEQFSQMLELSEAYPTAIALDESVANLKQLAACYAQGWRDVFVIKPAIAGSPSRLRQFCQQHEIDAVFSSVFETAIARKASLQLAAELSRDNRAVGFGVNHLFHQEAENWLQSLWNNPEGHHHHHH | soluble |
| MSLFPSSEVEAKRTTLNLELESNTDRLLQEKDDLLPQSVTNSSDEGTPFAQVEGASDDNTAEQDSDKPGASVADADTKPVDPEWKTITVASGDTLSTVFTKAGLSTSAMHDMLTSSKDAKRFTHLKVGQEVKLKLDPKGELQALRVKQSELETIGLDKTDKGYSFKREKAQIDLHTAYAHGRITSSLFVAGRNAGLPYNLVTSLSNIFGYDIDFALDLREGDEFDVIYEQHKVNGKQVATGNILAARFVNRGKTYTAVRYTNKQGNTSYYRADGSSMRKAFIRTPVDFARISSRFSLGRRHPILNKIRAHKGVDYAAPIGTPIKATGDGKILEAGRKGGYGNAVVIQHGQRYRTIYGHMSRFAKGIRAGTSVKQGQIIGYVGMTGLATGPHLHYEFQINGRHVDPLSAKLPMADPLGGADRKRFMAQTQPMIARMDQEKKTLLALNKQREGHHHHHH | soluble |
| MSLFRFMKYKLFIDFEFNILDDNKNKPKEYNGAELISIGGILVDNEFNTIDNYYSLVKPKYNKILSNKCKNLTKLNQLDINNAPNLLYVMDDFYKWFCKFDDVTIYNWGDFDITGLLTSFRVYKYTGKCLELFNMMIDIQPFISQHITYNNRILSKQISLLNMKKIFSVEGDIKHNSLSDAVDLMNVCKCFFFNSPKNIDILEELYNKLPALKTEGHHHHHH | soluble |
| MSLFTGYGNCYRLDALELAAEHGHTMQHWTFKTIEHFRSILANPEFPCLFGRKAVNGETCHILFARAEQLADDIAQGLANYVRTVAPIAPKQRIGSPLVVFLETAAGSSLAEQQALAWKVLRGVHARDPHPWPQGIPTDPDDTGWSFCYAGMPLFINMNFPGHQQMKSRNLGQHITFVINPRENFDEVANANTESGKRIRERIRERVHHYNDGVVPDTLGFFGDTDNYEWKQYQLQEAGSLNPSRCPFHAHAAHQPTPDILIENEGHHHHHH | not soluble |
| MSLFVEALKRQNPALISAALSLWQQGKIAPDSWVIDVDQILENGKRLIETARLYGIELYLMTKQFGRNPWLAEKLLALGYSGIVAVDYKEARVMRRAGLPVAHQGHLVQIPCHQVADAVEQGTDVITVFTLDKAREVSAAAVKAGRIQSVLLKVYSDDDFLYPGQESGFALKVLPEIVAEIQNLPGLHLAGLTHFPCLLWDEAVGKVLPTPNLHTLIQARDQLAKSGIALEQLNAPSATSCTSLPLLAQYGVTHAEPGHALTGTIPANQQGDQPERIAMLWLSEISHHFRGDSYCYGGGYYRRGHAQHALVFTPENQKITETNLKTVDDSSIDYTLPLAGEFPVSSAVVLCFRTQIFVTRSDVVLVSGIHRGEPEIVGRYDSLGNSLGAEGHHHHHH | soluble |
| MSLGAIVEVITIKNYSLKSENYEAEIDIPKIRGLKDKNLEQRLNSSFMEDGKRLYHQFQERMEKIQSSKNKGYKSLSLSYSVKNNSKKFLSIEMTKNEIEASSYVSKVHYTIDKKRQIVLTLPMLFKDDKYIKVISDNIKEQMREQMKKDSTKSYFIDQKKDLPVEDFKTINKYQDFYFNKNEDLVICFDEYEVAPGYMGAVEFVIPYKVIKDEGHHHHHH | soluble |
| MSLGCDSILSIDIGTTRIKAGLVDCNTLEITGRGSVSTPVSYPRKGWSEQDPEELWQAIVRASSAALEGFEASRVSGVIFSTYLAGVVLLDRDNYELTPIITWLDERAHGLPRELFSGVLKVSGYNLLHLVDLLRLTGGAPSKTGKDPLSKMVWLRENKPDLFTKAHTIGTLKTWVLAKTAEARLVSPDDAHLTWLADTRGGRAVWSPRLARRYGIPLEKLPGIAGPTDVAGGLVSSAARDLGLPQGIPVIVGAGDIASSAVGSGALAAGEYHIYVGTSSWIGVHSTRRLLDVRHYIGSLLSAKPGEYLVIGEQEIAGGMIDWILDVTGMDYRAVEDIHSIPPGSEGLIATPWLYGERTPIDDPHAKGVLVGLTLRHTKKHLVRAAVEGVALNIAWAMEHMTRLAGKPKLVRGVGGGFRLRTLAKVIASALNATIETVSQPEMAGVRGAGALAAAALKGSSIESEAGKIPVSWRAEADSNASKAYKDLLQIYQEIYSRLKSVFRRLSEGHHHHHH | not soluble |
| MSLGEDSEGSGTSGISPGGNSVSEEVLKHRSMVEKYAKESDILDYVPILLAIIQVESGGTMEDVMQSSESAGLPPNSLSTEASIKQGCIYFASLVKSSKELGCDQDSIIQAYNYGGGYLNYVAKNGKKHSFTLAESFSKEKSGGQKVDYPNPIAIKENGGWRYNYGNMFYCLLVKQYLTTTQFDDKTVQGIFDEAFKYEGTAYVFGGSSPATGFDCSGLTQWCYAKVGLKLPRVAQDQYDVMTHIDLKDAKPGDLIFFHSTYDAGTYVTHVGIYAGENRMFHAGNPVGWTNLTESYWQQHLIGAGRYNEGHHHHHH | soluble |
| MSLGEKGQAEIIKSLTEQLDQVQSLDDDRIIRRYMEMINATLRTNYYQLDEHKQNKPWLSLKMKPSEIPEIPAPVPAFEIFVYAPDIEGVHLRGGKVARGGLRWSDRQEDFRTEILGLVKAQQVKNTVIVPVGAKGGFVCKKQYLYTTRDEIFAEGQRCYKRFIRALLDVTDNIIEGQVVPPKNVVRHDEDDPYLVVAADKGTATFSDLANSVSAEYQFWLGDAFASGGSNGYDHKAMGITAKGGWESVKRHFREMGIDCQTTDFTAIGIGDMAGDVFGNGMLLSKHIRLLAAFNHIHIFIDPTPDSASSWEERNRLFNLPRSSWEDYNPKLISKGGGVFSRKAKAITLTPEMQKMLNTKKTTLAPNELIKMILKMEVDLLWNGGIGTYVKSSIETHTDVGDRANDGLRVDGREVNAKIIGEGGNLGMTQRGRIEFALKGGRVNTDFVDNVGGVDCSDNEVNIKIFLNGLVANGDLTLKQRNQILESMKDEVGSIVIEDAYGQSESISVTEAQGEGHHHHHH | not soluble |
| MSLGFHEFSSPYDWSRIASYKRTAKAAFGGMVDLSVGSPVDPVPDSVRKALAVSSNDPNAYGYPVTAGTADLRDAIHEWFAAARNVDLRAIGADAVPTVGSKEGVALMASLLHFGEGDVVVQPKVSYPTYEIGTQLAGAQTLKVDDVADADSWKDVPGVKAVWVNSPCNPTGEVLSAEQMAGIVRAARAIGAVVLSDECYALMQWEDDVAEADADTLASTPCALRADVCGGSAEGVLVLYSLSKQSNMAGYRTALIAGDQSLIGPMAAYRKQIGQIIPGPVQAAMAAGLRDFDAVKTQHSRYQERLGMLVSALRAYGYCTDMPQGALYVWVKAKSGDCWEDLRQLAEIGIVASPGEFYGAPEYLRFSATASDAAIASAAERLAREGHHHHHH | soluble |
| MSLGGTMVFRPVDVPGGAVFADQKITLGGGSPDRAFIENAHPDYLSGSFAEKNAWRYYIAKYELTAAQYAAIAGPCPDASKMDLWLPKVGITPGEATVAAESYSAWLFANARKSLPGDGKAPGFVRLPTEAEWEYAARGGAKVGPSDFDARHPPMDGPESGAIWYDGPESADKELQLVGLLAANPLGLHDMLGNAAELVQDLFRLNRVGRPHGRAGAFVKRGGDYRTPLAEIHSGLRQEFDLFDAKGLRREATTGTRFVLAAAALPSRDRLEALRQGWTALTEQSHSPLAEQQSDPRAELKTLSEFTSQLDFPEKAEVKRRLLNLAGVIDANIASRNEERDRAAREMLRVAVFAAGQLPTALDNAERCGKLMALNAAQYKERCDRVQADSKFDSQYYLDHVTRMLAEFPVPILEGQLGTLGSDLHAQGMLDAEGRVDHVFSDLKTLQAKGATAHKGILGGWKGREGHHHHHH | not soluble |
| MSLGKGVRDPGSDGSLRRKELAMIKVEDMMTRHPHTLLRTHTLNDAKHLMEALDIRHVPIVDANKKLLGIVSQRDLLAAQESSLQRSAQGDSLAFETPLFEVMHTDVTSVAPQAGLKESAIYMQKHKIGCLPVVAKDVLVGIITDSDFVTIAINLLELQEESEPDELDEEQEGGSHHHHHH | soluble |
| MSLGKLIVPILKSPSHLGHSSSRVNRLYNEDKYSANLLQVKESQIFNFSIFDGHGGDQCSTYLAENLSLALEDLDQLVENDNDRQELFKKYAKNVGGYWKRWYKHRDNTVANWEKERIKLKNFLSDDLATRVPLAFLNADYNFFSKEQKSGSTCTSAMIETIYSKPGTFQPFFENYYFNRHTISKLSIGHLGDTRAIVADKNGLAHTLTTDHHPLNPIEAKRLRKYAANFFMTDSFGEERFVALANTRAFGDVDYKEVGVTAEPDFNQYIIGDLDAIKQFLTPDEIEKYTIGGLGGDESFLILCSDGVTNIMTDQEIADIVLTHVNLKGQTVATPQYCAEQVIKFVEFVGGDDNATCLVIRLNGWGNEGHHHHHH | not soluble |
